Reference: PMC3247843

Biological target: soluble human FcRn (human) (UniProt P55899)
Assay: SPR

| KD relative to WT IgG1 (% higher than the KD of WT IgG1) | Substance | KD relative to WT IgG1 (fold of the KD of WT IgG1) |
| --- | --- | --- |
| 50 | recombinant human IgG1–H435R (antibody) |  |
|  | recombinant human IgG3 (anti-Streptococcus pneumoniae serotype 6) (antibody) | 2 |
